Source: US20130287684A1 (SYMPHOGEN A S, published 2013)

B1: antibody 5106 (antibody, human IgG1, kappa, V domains shown)
VH: EVKLVESGGDLVKPGESLKLSCAASGFTFSSFAMSWVRQTPEKRLEWVATISDGGSHLYYPDNVKGRFTISRDNAKNNLYLQMSHLKSEDTAMYYCARGILDYWGQGTSVTVSS
VL: DIVMTQATSSLSASLGDRVTISCSASQDINNYLNWYQQKPDGTIKLLIYYTSSLHSGVPSRFSGSGSGTDYSLTISNLEPEDIATYYCQQYSRIPYTFGGGTKLEIKR
notes: Chimeric: murine variable regions, human kappa constant region, expressed as full-length IgG
B2: antibody 5101 (antibody, human IgG1, kappa, V domains shown)
VH: EVKLVESGGGLVKPGGSLKLSCAASGFTFSSYGMSWVRQTPEKRLEWVATIRDGGGYTYYSDNVKGRFTISRDNAQNNLYLQMSHLKSEDTAMYYCARGILDYWGQGTSVTVSS
VL: QIVLTQSPSSLSASLGDRVTISCRASQDISNYLNWFQQRPDGTVKLLIYYTSRLHSGVPSRFSGSGSGTDYSLTISNLEQEDIATYFCQQGNTLPYTFGGGTKLELKR
notes: as for B1
B3: antibody 4785 (antibody, human IgG1, kappa, V domains shown)
VH: EVQLQQSGPELVMPGASVKISCKASGYSFTSYYVHWVKQRPGQGLEWIGWIYPGSGHTKYNEKFKDKATLTADTSSSTAYMQLSSLTSEDSAVYYCARPPYYSNYADVWGTGTTVTVSS
VL: DIVMTQSPSSLTVTAGEKVTMSCKSSQSLLNSGNQKNYLTWYQQKPGQPPKLLIYWASTRESGVPDRFTGSGSGTDFTLTISSVQAEDLAVYYCQSDYSYPYTFGGGTKLEIKR
notes: as for B1
B4: antibody 5143 (antibody, human IgG1, kappa, V domains shown)
VH: QVQLQQSGPELVKPGASVKISCKASGYSFTSYYIHWVKQRPGQGLEWIGWIYPGSGHTKYNEKFKGKATLTADTSSSTAYMQLSSLTSEDSAVYYCARPPYYSNYADVWGTGTTVTVSS
VL: DIVMTQSPSSLTVTAGEKVTMSCKSSQSLLNSGNQKNYMTWYQQKPGQSPKLLIYWASTRESGVPDRFTGSGSGTDFTLTISSVQAEDLAVYYCQNDYSYPYTFGGGTKLELKR
notes: as for B1
B5: antibody 5259 (antibody, human IgG1, kappa, V domains shown)
VH: EVQLVESGPGLVAPSQSLSITCTVSGFSLSRYTIHWVRQPPGKGLEWLGMIWGGGSTDYNSALKSRLSISKDNSKSQLFLKMNSLQTDDTAIYYCARKGITTTGFDYWGQGTTLTVSS
VL: NIVLTQSPAIMSASPGEKVTMTCSASSSVSYMFWYQQKPGSSPRLLIYDTSNLASGVPVRFSGSGSGTSYSLTISRMEAEDAATYYCQQLNSYPPTFGGGTKLEIKR
notes: as for B1
B6: antibody 4889 (antibody, human IgG1, kappa, V domains shown)
VH: EVQLVESGPGLVKPSQSLSLTCSVTGYSITSAYYWNWIRQFPGNKLEWMGYVSYDGSNTYNPSLKNRISITRDTSKNQFFLKLISLTTEDTATYYCAREGDYGYSDYWGQGTTLTVSS
VL: DIVMTQSTSSLSASLGDRVTVSCRASQDISNYLNWYQQKPDGTIKLLIYYTSRLHSGVPSRFSGSGSGTDYSLTISNLDQEDIATYFCQQSNTLPWTFGGGTKLEIKR
notes: as for B1
B7: antibody 5038 (antibody, human IgG1, kappa, V domains shown)
VH: EVKLVESGPGLVKPSQSLSLTCSVTGYSITSGFYWTWIRQFPGNKLEWMGFISYDGSNNYNPSLKNRISITRDTSKNQFFLKLNSVTTEDTATYYCARGGGYYGNLFDYWGQGTTLTVSS
VL: DIVMTQTTSSLSASLGDRVTISCRPSQDISNYVNWFQQKPGGTVKLLIFHTSRLHSGVPSRFSGSGSGTDYSLTISTLEQEDIAIYFCQQGITLPWTFGGGTKLEIKR
notes: as for B1
B8: antibody 5082 (antibody, human IgG1, kappa, V domains shown)
VH: EVQLKESGPGLVKPSQSLSLTCSVTGYSITSAYYWNWIRQFPGNKVEWMGYIGYDGRNTYNPSLKNRISITRDTSKNQFFLKLNSLTTEDTATYYCSREGDYGYSDYWGQGTTLTVSS
VL: DIVMTQATSSLSASLGDRVTVSCRASQDINNYLNWYQQKPDGTVKLLIYYTSRLQSGVPSRFSGSGSGIDYSLTISNLEQEDFVTYFCQQSETLPWTFGGGTKLELKR
notes: Chimeric: murine variable regions, human IGHG1 and kappa constant regions; also called mAb 5082
B9: antibody 5144 (antibody, human IgG1, kappa, V domains shown)
VH: QVQLKESGPGLVAPSQSLSITCTVSGFSLSRYSVHWVRQPPGKGLEWLGMIWGGGSTDYNSALKSRLNINKDNSKSQVFFKMNSLQTDDTAMYYCVRKGITTTGFDYWGQGTTLTVSS
VL: HIVLTQSPAIMSASPGEKVTMTCSASSSVSYMYWYQQKPRSSPRLLIYDTSNLASGVPVRFSGSGSGTSYSLTISRMEADDAATYYCQQLSSYPPTFGGGTKLELKR
notes: as for B1
B10: antibody 4935 (antibody, human IgG1, kappa, V domains shown)
VH: QIQLVQSGPELVKPGASVRISCKASGYTFTSYYIHWVKQRPGQGLEWIGWIYPGNVHTKYTEKFKGKATLTADKSSSTAYMHLSSLTSEDSAVYFCVRRYGYDGDWFAYWGQGTLVTVSS
VL: DIQMTQSPASLAVSLGQRATISCRASESVDSYGNTFMHWYQQKPGQPPKLLIYRASNLESGIPARFSGSGSRTDFTLTINPVEADDVATYYCQQSNEDPWTFGGGTKLEIKR
notes: as for B1

Biological target: T1, fully human HER3 ECD construct with N-terminal histidine tag (human, UniProt P21860 20-643)
T1 construct: extracellular domain; Transiently expressed in Hek 293 cells, purified on nickel NTA; also called fully human ECD construct
Assay: ELISA on coated His-tagged HER3 ECD constructs
Description: Because the anti-HER3 antibody panel was raised in mice, antibodies are not expected to recognize epitopes present on murine HER3 due to the concept of “self tolerance”. Consequently, chimeric receptor constructs in which the human sequences coding for individual domains are replaced by murine sequences can be employed for epitope mapping purposes, since the antibodies are not expected to bind the murines sequence inserted in the human HER3 construct. Human and murine HER3 mRNA sequences (accession number M29366 and NM_{—}010153.1 respectively) were downloaded from NCBI, and extracellular domains I-IV were assigned as described by Kani et al. (J. Biol. Chem. (2005) 280:8238-8247). Chimeric human/murine domain exchange variants, in which each of the four human extracellular HER3 domains were replaced by the respective murine DNA sequence, were provided with an N-terminal histidine tag, gene synthesized and transiently expressed in Hek 293 cells. A fully human and a murine ECD construct were used as positive and negative controls, respectively. […] The next day wells were blocked with 1% BSA/PBS-T and titrations of antibodies diluted in blocking buffer were added. […]
The domain mapping of anti-HER3 antibodies is shown in FIGS. 27-32, which is a titration of anti-HER3 antibodies and negative controls against coated HER3 antigens. Bound antibody was detected with an anti-human Fc antibody. […]

T1 sequence (P21860 20-643): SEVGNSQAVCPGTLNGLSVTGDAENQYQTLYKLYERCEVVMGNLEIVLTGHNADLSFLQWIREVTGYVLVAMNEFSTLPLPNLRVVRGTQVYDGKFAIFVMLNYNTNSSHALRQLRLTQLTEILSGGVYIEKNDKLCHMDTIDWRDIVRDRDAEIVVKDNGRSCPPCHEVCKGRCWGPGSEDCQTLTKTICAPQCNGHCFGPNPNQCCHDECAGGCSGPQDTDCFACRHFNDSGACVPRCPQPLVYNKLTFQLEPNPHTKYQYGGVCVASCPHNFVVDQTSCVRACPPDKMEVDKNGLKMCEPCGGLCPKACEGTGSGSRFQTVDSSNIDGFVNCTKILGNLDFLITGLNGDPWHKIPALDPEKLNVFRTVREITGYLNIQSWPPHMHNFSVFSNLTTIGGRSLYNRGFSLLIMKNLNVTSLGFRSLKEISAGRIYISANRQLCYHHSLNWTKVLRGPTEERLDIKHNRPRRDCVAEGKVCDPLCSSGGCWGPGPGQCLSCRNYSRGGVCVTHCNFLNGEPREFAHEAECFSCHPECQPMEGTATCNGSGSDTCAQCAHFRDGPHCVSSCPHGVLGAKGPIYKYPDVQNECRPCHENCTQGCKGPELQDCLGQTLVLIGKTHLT

Binding result, binds:
B1
B2

Biological target: T2, human HER3 receptor (human, UniProt P21860 20-643)
T2 construct: also called ErbB3
Assay: method not named there (Example 1: HER3 ELISA and confocal microscopy on MCF-7 cells)
Experimental: Briefly, Nunc Maxisorb plates (cat.#464718) were coated with 1 μg/ml HER3 protein (R&D Systems cat.#348-RB), diluted in PBS at 4° C. overnight. Prior to blocking in 50 μl 2% milk-PBS+0.05% Tween 20 the plates were washed once with PBS-T. The plates were washed once with PBS-T and 20 μl of 2% milk-PBS-T, and 10 μl supernatants from FreeStyle293 transfectants were added and incubated for 1 hour at room temperature, after which the plates were washed once with PBS-T, 20 μl per well. Secondary antibody (HRP-Goat-anti-human kappa light chain, Serotec, cat.# STAR 100P) diluted 1:25000 in 2% milk-PBS-T was added to detect the antibodies bound to the wells and incubated for 1 hour at room temperature. The plates were washed once in PBS-T before addition of 25 μl substrate (Kem-En-Tec Diagnostics, cat.#4518) that was incubated for 5 min. 25 μl 1M sulphuric acid was added after the incubation to stop the reaction. Specific signal was detected on an ELISA reader at 450 nm. From the ELISA data 480 positive antibody clones were identified and selected for sequence analysis and validation of binding to HER3.
The 119 clones were screened for binding to the HER3-overexpressing breast cancer cell line (MCF-7) using confocal microscopy. 10,000 MCF-7 cells were seeded into each well of 384-well cell carrier plates (Perkin Elmer, cat.#6007439) and allowed to attach overnight. The media was again discarded and the cells were washed and fixed with 2% formaldehyde solution (Aldrich cat.#533998). After washing, 40 μl of antibody supernatant was transferred to each well and plates were incubated for 2 hours, after which the media in the wells was discarded and 30 μl new media containing 2 μg/ml of Alexa-488 labelled goat anti-human IgG (H+L, Invitrogen cat.# A11013), 2 μg/ml CellMask Blue (Invitrogen cat.# H34558) and 1 μM Hoechst 33342 (Invitrogen cat.# H3570) was added to each well and plates were incubated for another 30 minutes. The level of fluorescence was then measured using an OPERA high throughput confocal microscope (Perkin Elmer).

T2 sequence (P21860 20-643 limits assumed): as the sequence (P21860 20-643) above

Binding result, binds:
B3
B4
B5
B6
B7
B8
B1
B9
B10
B2
